Assay results: US20070071742A1 (PERLAN THERAPEUTICS, published 2007)
Changes are numbered by the printed parent chain.

B1: HumA humanized 1A6 scFv (scFv, not shown: large carriers)
scFv: DIQMTQSPSSLSASVGDRVTITCRASQSISNNLHWYQQKPGKAPKLLIYHASQSISGVPSRFSGSGSGTDFTLTISSLQPEDFATYYCQQSNSWPYTFGQGTKVEIKRGGGGSGGGGSGGGGSGGGGSEVQLVESGGGLVQPGGSLRLSCAASGFNIKDTYIHWVRQAPGKGLEWVARIDPANDNTIYADSVKGRFTISSDDSKNTAYLQMNSLRAEDTAVYYCTDSGYWFAYWGQGTLVTVSS
B2: HumB humanized 1A6 scFv (scFv, not shown: large carriers)
scFv: B1 scFv with D226A
B3: HumC humanized 1A6 scFv (scFv, not shown: large carriers)
scFv: B1 scFv with S200G, D226T

Target: ICAM-1 on HeLa cells (UniProt P05362 28-532, limits assumed)
Sequence (P05362 28-532 limits assumed): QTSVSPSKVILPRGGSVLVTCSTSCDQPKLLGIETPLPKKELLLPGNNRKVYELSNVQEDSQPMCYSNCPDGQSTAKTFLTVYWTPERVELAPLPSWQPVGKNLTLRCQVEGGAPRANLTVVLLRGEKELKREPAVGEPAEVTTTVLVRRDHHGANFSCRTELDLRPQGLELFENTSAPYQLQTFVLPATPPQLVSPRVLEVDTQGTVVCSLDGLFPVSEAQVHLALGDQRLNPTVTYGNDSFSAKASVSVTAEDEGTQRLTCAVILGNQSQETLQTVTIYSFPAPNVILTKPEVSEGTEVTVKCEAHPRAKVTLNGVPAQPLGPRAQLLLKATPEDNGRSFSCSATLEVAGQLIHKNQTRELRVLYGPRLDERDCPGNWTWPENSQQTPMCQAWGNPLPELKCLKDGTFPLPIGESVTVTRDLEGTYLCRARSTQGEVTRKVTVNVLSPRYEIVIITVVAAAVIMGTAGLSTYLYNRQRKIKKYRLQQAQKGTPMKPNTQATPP
Assay: cell-based or functional assay

Row | Binder | EC 50 (µM): 50% protection of HeLa cells against HRV15 infection at 1 MOI
1 | B1 | 2.8 µM
2 | B2 | 0.19 µM
3 | B3 | 0.22 µM
